Results taken from patent publication US20150344570A1 (published 2015).

What follows are binders tested against T1, FcγRIIa H (human, UniProt P12318 34-217) (assay: SPR Biacore, captured antibody, FcγR analyte; vs GpH7-B3/GpL16-k0 = 100).
T1 sequence (P12318 34-217): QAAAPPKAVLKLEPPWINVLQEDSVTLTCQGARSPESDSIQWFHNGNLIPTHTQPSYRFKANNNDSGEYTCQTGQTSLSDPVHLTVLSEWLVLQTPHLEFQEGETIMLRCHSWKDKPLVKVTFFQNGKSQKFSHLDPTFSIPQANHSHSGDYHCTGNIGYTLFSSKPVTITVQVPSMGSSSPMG

| Binder | Ho/Con_2aH |
| --- | --- |
| GpH7-B3 variant T335_19Q/GpL16-k0 (antibody, human IgG1, kappa, also called Ho Ab T335_19Q) heavy: not shown light: DIVMTQSPLSLPVTPGEPASISCQASESLVHSNRNTYLHWYLQKPGQSPQLLIYKVSNRFSGVPDRFSGSGSGTDFTLKISRVEAEDVGVYYCSQNTHVPPTFGQGTKVEIERTVAAPSVFIFPPSDEQLKSGTASVVCLLNNFYPREAKVQWKVDNALQSGNSQESVTEQDSKDSTYSLSSTLTLSKADYEKHKVYACEVTHQGLSSPVTKSFNRGEC | 103 % of control |
| GpH7-B3 variant V266_07I/GpL16-k0 (antibody, human IgG1, kappa, also called Ho Ab V266_07I) heavy: not shown light: DIVMTQSPLSLPVTPGEPASISCQASESLVHSNRNTYLHWYLQKPGQSPQLLIYKVSNRFSGVPDRFSGSGSGTDFTLKISRVEAEDVGVYYCSQNTHVPPTFGQGTKVEIERTVAAPSVFIFPPSDEQLKSGTASVVCLLNNFYPREAKVQWKVDNALQSGNSQESVTEQDSKDSTYSLSSTLTLSKADYEKHKVYACEVTHQGLSSPVTKSFNRGEC | 104 % of control |
| GpH7-B3 variant Y296_18N/GpL16-k0 (antibody, human IgG1, kappa, also called Ho Ab Y296_18N) heavy: not shown light: DIVMTQSPLSLPVTPGEPASISCQASESLVHSNRNTYLHWYLQKPGQSPQLLIYKVSNRFSGVPDRFSGSGSGTDFTLKISRVEAEDVGVYYCSQNTHVPPTFGQGTKVEIERTVAAPSVFIFPPSDEQLKSGTASVVCLLNNFYPREAKVQWKVDNALQSGNSQESVTEQDSKDSTYSLSSTLTLSKADYEKHKVYACEVTHQGLSSPVTKSFNRGEC | 100 % of control |

These binders were tested against T1, FcγRIIa H (assay: SPR Biacore, captured antibody, FcγR analyte; vs GpH7-A5/GpH7-B3/GpL16-k0 = 100).

| Binder | He/Con_2aH |
| --- | --- |
| GpH7-A5/GpH7-B3 variant A327_09D/GpL16-k0 (antibody, human IgG1, kappa, also called He Ab A327_09D) heavy 1: not shown heavy 2: not shown light: DIVMTQSPLSLPVTPGEPASISCQASESLVHSNRNTYLHWYLQKPGQSPQLLIYKVSNRFSGVPDRFSGSGSGTDFTLKISRVEAEDVGVYYCSQNTHVPPTFGQGTKVEIERTVAAPSVFIFPPSDEQLKSGTASVVCLLNNFYPREAKVQWKVDNALQSGNSQESVTEQDSKDSTYSLSSTLTLSKADYEKHKVYACEVTHQGLSSPVTKSFNRGEC | 105 % of control |
| GpH7-A5/GpH7-B3 variant A330_19Q/GpL16-k0 (antibody, human IgG1, kappa, also called He Ab A330_19Q) heavy 1: not shown heavy 2: not shown light: DIVMTQSPLSLPVTPGEPASISCQASESLVHSNRNTYLHWYLQKPGQSPQLLIYKVSNRFSGVPDRFSGSGSGTDFTLKISRVEAEDVGVYYCSQNTHVPPTFGQGTKVEIERTVAAPSVFIFPPSDEQLKSGTASVVCLLNNFYPREAKVQWKVDNALQSGNSQESVTEQDSKDSTYSLSSTLTLSKADYEKHKVYACEVTHQGLSSPVTKSFNRGEC | 102 % of control |
| GpH7-A5/GpH7-B3 variant E333_04F/GpL16-k0 (antibody, human IgG1, kappa, also called He Ab E333_04F) heavy 1: not shown heavy 2: not shown light: DIVMTQSPLSLPVTPGEPASISCQASESLVHSNRNTYLHWYLQKPGQSPQLLIYKVSNRFSGVPDRFSGSGSGTDFTLKISRVEAEDVGVYYCSQNTHVPPTFGQGTKVEIERTVAAPSVFIFPPSDEQLKSGTASVVCLLNNFYPREAKVQWKVDNALQSGNSQESVTEQDSKDSTYSLSSTLTLSKADYEKHKVYACEVTHQGLSSPVTKSFNRGEC | 102 % of control |
| GpH7-A5/GpH7-B3 variant E333_08L/GpL16-k0 (antibody, human IgG1, kappa, also called He Ab E333_08L) heavy 1: not shown heavy 2: not shown light: DIVMTQSPLSLPVTPGEPASISCQASESLVHSNRNTYLHWYLQKPGQSPQLLIYKVSNRFSGVPDRFSGSGSGTDFTLKISRVEAEDVGVYYCSQNTHVPPTFGQGTKVEIERTVAAPSVFIFPPSDEQLKSGTASVVCLLNNFYPREAKVQWKVDNALQSGNSQESVTEQDSKDSTYSLSSTLTLSKADYEKHKVYACEVTHQGLSSPVTKSFNRGEC | 102 % of control |
| GpH7-A5/GpH7-B3 variant E333_13S/GpL16-k0 (antibody, human IgG1, kappa, also called He Ab E333_13S) heavy 1: not shown heavy 2: not shown light: DIVMTQSPLSLPVTPGEPASISCQASESLVHSNRNTYLHWYLQKPGQSPQLLIYKVSNRFSGVPDRFSGSGSGTDFTLKISRVEAEDVGVYYCSQNTHVPPTFGQGTKVEIERTVAAPSVFIFPPSDEQLKSGTASVVCLLNNFYPREAKVQWKVDNALQSGNSQESVTEQDSKDSTYSLSSTLTLSKADYEKHKVYACEVTHQGLSSPVTKSFNRGEC | 101 % of control |
| GpH7-A5/GpH7-B3 variant E333_14T/GpL16-k0 (antibody, human IgG1, kappa, also called He Ab E333_14T) heavy 1: not shown heavy 2: not shown light: DIVMTQSPLSLPVTPGEPASISCQASESLVHSNRNTYLHWYLQKPGQSPQLLIYKVSNRFSGVPDRFSGSGSGTDFTLKISRVEAEDVGVYYCSQNTHVPPTFGQGTKVEIERTVAAPSVFIFPPSDEQLKSGTASVVCLLNNFYPREAKVQWKVDNALQSGNSQESVTEQDSKDSTYSLSSTLTLSKADYEKHKVYACEVTHQGLSSPVTKSFNRGEC | 100 % of control |
| GpH7-A5/GpH7-B3 variant G236_04F/GpL16-k0 (antibody, human IgG1, kappa, also called He Ab G236_04F) heavy 1: not shown heavy 2: not shown light: DIVMTQSPLSLPVTPGEPASISCQASESLVHSNRNTYLHWYLQKPGQSPQLLIYKVSNRFSGVPDRFSGSGSGTDFTLKISRVEAEDVGVYYCSQNTHVPPTFGQGTKVEIERTVAAPSVFIFPPSDEQLKSGTASVVCLLNNFYPREAKVQWKVDNALQSGNSQESVTEQDSKDSTYSLSSTLTLSKADYEKHKVYACEVTHQGLSSPVTKSFNRGEC | 118 % of control |
| GpH7-A5/GpH7-B3 variant G236_14T/GpL16-k0 (antibody, human IgG1, kappa, also called He Ab G236_14T) heavy 1: not shown heavy 2: not shown light: DIVMTQSPLSLPVTPGEPASISCQASESLVHSNRNTYLHWYLQKPGQSPQLLIYKVSNRFSGVPDRFSGSGSGTDFTLKISRVEAEDVGVYYCSQNTHVPPTFGQGTKVEIERTVAAPSVFIFPPSDEQLKSGTASVVCLLNNFYPREAKVQWKVDNALQSGNSQESVTEQDSKDSTYSLSSTLTLSKADYEKHKVYACEVTHQGLSSPVTKSFNRGEC | 103 % of control |
| GpH7-A5/GpH7-B3 variant G236_15Y/GpL16-k0 (antibody, human IgG1, kappa, also called He Ab G236_15Y) heavy 1: not shown heavy 2: not shown light: DIVMTQSPLSLPVTPGEPASISCQASESLVHSNRNTYLHWYLQKPGQSPQLLIYKVSNRFSGVPDRFSGSGSGTDFTLKISRVEAEDVGVYYCSQNTHVPPTFGQGTKVEIERTVAAPSVFIFPPSDEQLKSGTASVVCLLNNFYPREAKVQWKVDNALQSGNSQESVTEQDSKDSTYSLSSTLTLSKADYEKHKVYACEVTHQGLSSPVTKSFNRGEC | 136 % of control |
| GpH7-A5/GpH7-B3 variant I336_03V/GpL16-k0 (antibody, human IgG1, kappa, also called He Ab I336_03V) heavy 1: not shown heavy 2: not shown light: DIVMTQSPLSLPVTPGEPASISCQASESLVHSNRNTYLHWYLQKPGQSPQLLIYKVSNRFSGVPDRFSGSGSGTDFTLKISRVEAEDVGVYYCSQNTHVPPTFGQGTKVEIERTVAAPSVFIFPPSDEQLKSGTASVVCLLNNFYPREAKVQWKVDNALQSGNSQESVTEQDSKDSTYSLSSTLTLSKADYEKHKVYACEVTHQGLSSPVTKSFNRGEC | 102 % of control |
| GpH7-A5/GpH7-B3 variant I336_10E/GpL16-k0 (antibody, human IgG1, kappa, also called He Ab I336_10E) heavy 1: not shown heavy 2: not shown light: DIVMTQSPLSLPVTPGEPASISCQASESLVHSNRNTYLHWYLQKPGQSPQLLIYKVSNRFSGVPDRFSGSGSGTDFTLKISRVEAEDVGVYYCSQNTHVPPTFGQGTKVEIERTVAAPSVFIFPPSDEQLKSGTASVVCLLNNFYPREAKVQWKVDNALQSGNSQESVTEQDSKDSTYSLSSTLTLSKADYEKHKVYACEVTHQGLSSPVTKSFNRGEC | 102 % of control |

Further lines, results first:

| He/Con_2aH | Binder |
| --- | --- |
| 103 % of control | GpH7-A5/GpH7-B3 variant I336_18N/GpL16-k0 (antibody, human IgG1, kappa, also called He Ab I336_18N) heavy 1: not shown heavy 2: not shown light: DIVMTQSPLSLPVTPGEPASISCQASESLVHSNRNTYLHWYLQKPGQSPQLLIYKVSNRFSGVPDRFSGSGSGTDFTLKISRVEAEDVGVYYCSQNTHVPPTFGQGTKVEIERTVAAPSVFIFPPSDEQLKSGTASVVCLLNNFYPREAKVQWKVDNALQSGNSQESVTEQDSKDSTYSLSSTLTLSKADYEKHKVYACEVTHQGLSSPVTKSFNRGEC |
| 100 % of control | GpH7-A5/GpH7-B3 variant K326_01G/GpL16-k0 (antibody, human IgG1, kappa, also called He Ab K326_01G) heavy 1: not shown heavy 2: not shown light: DIVMTQSPLSLPVTPGEPASISCQASESLVHSNRNTYLHWYLQKPGQSPQLLIYKVSNRFSGVPDRFSGSGSGTDFTLKISRVEAEDVGVYYCSQNTHVPPTFGQGTKVEIERTVAAPSVFIFPPSDEQLKSGTASVVCLLNNFYPREAKVQWKVDNALQSGNSQESVTEQDSKDSTYSLSSTLTLSKADYEKHKVYACEVTHQGLSSPVTKSFNRGEC |
| 100 % of control | GpH7-A5/GpH7-B3 variant K326_07I/GpL16-k0 (antibody, human IgG1, kappa, also called He Ab K326_07I) heavy 1: not shown heavy 2: not shown light: DIVMTQSPLSLPVTPGEPASISCQASESLVHSNRNTYLHWYLQKPGQSPQLLIYKVSNRFSGVPDRFSGSGSGTDFTLKISRVEAEDVGVYYCSQNTHVPPTFGQGTKVEIERTVAAPSVFIFPPSDEQLKSGTASVVCLLNNFYPREAKVQWKVDNALQSGNSQESVTEQDSKDSTYSLSSTLTLSKADYEKHKVYACEVTHQGLSSPVTKSFNRGEC |
| 101 % of control | GpH7-A5/GpH7-B3 variant K326_12R/GpL16-k0 (antibody, human IgG1, kappa, also called He Ab K326_12R) heavy 1: not shown heavy 2: not shown light: DIVMTQSPLSLPVTPGEPASISCQASESLVHSNRNTYLHWYLQKPGQSPQLLIYKVSNRFSGVPDRFSGSGSGTDFTLKISRVEAEDVGVYYCSQNTHVPPTFGQGTKVEIERTVAAPSVFIFPPSDEQLKSGTASVVCLLNNFYPREAKVQWKVDNALQSGNSQESVTEQDSKDSTYSLSSTLTLSKADYEKHKVYACEVTHQGLSSPVTKSFNRGEC |
| 102 % of control | GpH7-A5/GpH7-B3 variant K334_13S/GpL16-k0 (antibody, human IgG1, kappa, also called He Ab K334_13S) heavy 1: not shown heavy 2: not shown light: DIVMTQSPLSLPVTPGEPASISCQASESLVHSNRNTYLHWYLQKPGQSPQLLIYKVSNRFSGVPDRFSGSGSGTDFTLKISRVEAEDVGVYYCSQNTHVPPTFGQGTKVEIERTVAAPSVFIFPPSDEQLKSGTASVVCLLNNFYPREAKVQWKVDNALQSGNSQESVTEQDSKDSTYSLSSTLTLSKADYEKHKVYACEVTHQGLSSPVTKSFNRGEC |
| 101 % of control | GpH7-A5/GpH7-B3 variant K334_19Q/GpL16-k0 (antibody, human IgG1, kappa, also called He Ab K334_19Q) heavy 1: not shown heavy 2: not shown light: DIVMTQSPLSLPVTPGEPASISCQASESLVHSNRNTYLHWYLQKPGQSPQLLIYKVSNRFSGVPDRFSGSGSGTDFTLKISRVEAEDVGVYYCSQNTHVPPTFGQGTKVEIERTVAAPSVFIFPPSDEQLKSGTASVVCLLNNFYPREAKVQWKVDNALQSGNSQESVTEQDSKDSTYSLSSTLTLSKADYEKHKVYACEVTHQGLSSPVTKSFNRGEC |
| 120 % of control | GpH7-A5/GpH7-B3 variant L234_04F/GpL16-k0 (antibody, human IgG1, kappa, also called He Ab L234_04F) heavy 1: not shown heavy 2: not shown light: DIVMTQSPLSLPVTPGEPASISCQASESLVHSNRNTYLHWYLQKPGQSPQLLIYKVSNRFSGVPDRFSGSGSGTDFTLKISRVEAEDVGVYYCSQNTHVPPTFGQGTKVEIERTVAAPSVFIFPPSDEQLKSGTASVVCLLNNFYPREAKVQWKVDNALQSGNSQESVTEQDSKDSTYSLSSTLTLSKADYEKHKVYACEVTHQGLSSPVTKSFNRGEC |
| 120 % of control | GpH7-A5/GpH7-B3 variant L234_15Y/GpL16-k0 (antibody, human IgG1, kappa, also called He Ab L234_15Y) heavy 1: not shown heavy 2: not shown light: DIVMTQSPLSLPVTPGEPASISCQASESLVHSNRNTYLHWYLQKPGQSPQLLIYKVSNRFSGVPDRFSGSGSGTDFTLKISRVEAEDVGVYYCSQNTHVPPTFGQGTKVEIERTVAAPSVFIFPPSDEQLKSGTASVVCLLNNFYPREAKVQWKVDNALQSGNSQESVTEQDSKDSTYSLSSTLTLSKADYEKHKVYACEVTHQGLSSPVTKSFNRGEC |
